This assay addresses neonatal Fc receptor (FcRn), recombinant ectodomains (UniProt P55899;P61769). The experiment in a line: BLI. (In BLI a coated tip is dipped into the sample, and binding shifts an interference pattern.)

Sequence of neonatal Fc receptor (FcRn), recombinant ectodomains (P55899 24-297, chain 1 of 2): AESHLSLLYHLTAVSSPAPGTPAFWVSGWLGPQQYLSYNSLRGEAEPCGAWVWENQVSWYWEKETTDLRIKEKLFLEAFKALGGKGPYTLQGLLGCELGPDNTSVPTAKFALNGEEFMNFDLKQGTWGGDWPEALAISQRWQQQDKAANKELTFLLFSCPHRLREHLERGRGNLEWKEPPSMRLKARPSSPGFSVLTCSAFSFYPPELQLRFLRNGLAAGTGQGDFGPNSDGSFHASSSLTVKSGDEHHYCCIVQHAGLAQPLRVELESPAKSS
Sequence of neonatal Fc receptor (FcRn), recombinant ectodomains (P61769 21-119, chain 2 of 2): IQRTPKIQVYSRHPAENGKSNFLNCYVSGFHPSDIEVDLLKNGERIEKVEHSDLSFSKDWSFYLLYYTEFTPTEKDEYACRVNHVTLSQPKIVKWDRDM

B1: HAstV1 spike protein VP25 (residues S424 to R648) (domain or fragment)
chain: SIPAPGEEFKVVLTFGAPMSPNANNKQTWVNKPLDAPSGHYNVKIAKDVDHYLTMQGFTSIASVDWYTIDFQPSEAPAPIQGLQVLVNSSKKADVYAIKQFVTAQTNNKHQVTSLFLVKVTTGFQVNNYLSYFYRASATGDATTNLLVRGDTYTAGISFTQGGWYLLTNTSIVDGAMPPGWVWNNVELKTNTAYHMDKGLVHLIMPLPESTQMCYEMLTSIPRSR
modifications: biotin (EZ-link NHS-PEG4-Biotin)
One may read the Kd as the concentration at which binding is half-saturated. As to B1, the dissociation constant Kd is 578 nM.

The values above are taken from article doi:10.1101/2024.07.12.603331 (bioRxiv, 2024).
